Measured values as given in the nanobody polyreactivity screen of Harvey et al. (2022).

Test: yeast display, Sf9 membrane polyspecificity reagent, FACS + sequencing; frameworks hold sequencing errors
Summary of the method: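 Sorting gates, low and high (top ~1%), were placed on anti-HA fluorescence to track expression and on streptavidin fluorescence to track reagent binding. A clone's polyreactivity label is taken from the gate it came out of. The reagent was 10% biotinylated, detergent-solubilized Sf9 membrane, applied for 1 hour at 4 °C to galactose-induced yeast display cells.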

Sequence	polyreactivity (PSR sort gate)
QVQLVESGGGLVQAGGSLRLSCAASGRTFSYYAMGWYRQAPGKERELVAAISYSGGRTYYADSVKGRFTISRDNAKNTVYIQMNSLKPEDTAVYYCAPVKSRPQYGYGYWVQGTQVTVSS	high polyreactivity
QVQLVESGGGLVQAGGSLRLSCAASGSTFVYYAMGWYRQAPGKERELVARISSGGSTYYADSVKGRFTISRDNAKNTVYLQMNSLKPEDTAVYYCAVLLWVSPLKREFYWGQGTQVTVSS	high polyreactivity
QVHLVESGGGLVQAGGSLRLSCAASGSTFVANTMRWSRQAPGKERELVASITSGDSTNYADSVKGRFTISRDNAKNTVYLQMNSLKPEDTAVYYCSAETVWYYVGGQLIYYSWGQGTQVTVSS	low polyreactivity
QVQLVESGGGLVQAGGSLRLSCAASGSTFGKNALGWYRQAPGKERELVAAITRRGGSTNYADSVKGRFTISRDNAKNTVYLQMNSLKPEDTAVYYCNAGYGYGYPKYDYWGQGTQVTVSS	high polyreactivity
QFQLVESGGGLVQAGGSLRLSCAASGSIFSVYTMGWYRQAPGKERELVAAISTGGGSTYYADSVKGRFTISRDNAKNTVYLQMNSLKPEDTAVYYCATDYGWAPSYWYDSCGQGTQVTVSS	low polyreactivity
QVQLVESGGGLVQAGGSLRLSCAASGFTFRYYAMGWYRQAPGKEREFVAAISWSGGSTYYADSVKGRFTISRDNAKNTVYLQMNSLKPEDTAVYYCNRVPRARKGDYWGQGTQVTVSS	high polyreactivity
QVQLVESGGGLVQAGGSLRLSCAASGYIFRGYVMGWYRQAPGKERELVAAITSRGDSTYYADSVKGRFTISRDNAKNTVYLQMNSLKPEDTAVYYCNAVHYYVEYDYWGQGTQVTVSS	high polyreactivity
QVQLVESWRGLVQAGGSLRLSCAASGNTFVYNAMRWYRQAPGKERELVAGITKTGGRTYYADSVKGRFTISRDIAKNTVYLEMNSLKPEDTAVYYCAARPWNDGYYVGRFHMVYWGQGTQVTVSS	low polyreactivity
QVQLVESGGGLVKAGGSLRISCAASGFTFVSYSKGWYRQAPGKERELVADISSGVSTNYADSVKGRFTISRDNAKNTVYLQMNSLNPEDTAVYYCAAYGTKWGRGFYITGYGYWGQGTQVTVSS	low polyreactivity
QVQLVESGGGLVQARGSLRLSCAASGRIFNYNAMGWYRQAPGKERELVAAITSSGGSTYYADSVKGRFTISRDNAKNTVYLQMNSLKPEDTAVYYCNALITYSSDYWGQGTQVTVSS	low polyreactivity
IIQAGGSLRLSCAASVRTFSGYAMGWYRQAPGKERELIADITSGGSTYYADSVKGRFTISRDNAKNTVYLQMNSLKPEDTAVFYCCRDDRLAGDYWGQGTQVNVSS	low polyreactivity
QVQLVESGGGLVQAGGSLRLSCAASGSTFRQYAMGWYRQAPGKERELVAAITWRGDNTYYADSVKGRFTISRDNAKNTVYLQMNSLKPEDTAVYYCAARWSYRLYWGYGYWGQGTQVTVSS	low polyreactivity
QVQLVESGGGLVQAGGSLRLSCAASGNTLVKNAMGWYRQAPGNERELVAAISSSGGRTYYADSVKGRFTISRDNAKNTVYLQMNSLKPEDTAVYYCAARYPSGYYYWGQGTQVTVSS	high polyreactivity
QVQLVESGGGLVQAGGSLRLSCAASGSTFYKNAMGWYRQAPGKERELVARISGRGGSTYYADSVKGRFTISRDNAKNTVYLQMNSLKPEDTAVYYCNALYRVFVGTYDYWGQGTQVTVSS	high polyreactivity
QVQLVESGGGLVQAGGSLRLSCAASGRTFRRYAMGWYRQAPGKERELVASISTSGGSTYADSVKGRFTISRDNAKNTVYLQMNSLKPEDTAVYYCAVRSPRYVRNGDYWGQGTQVTVSS	high polyreactivity
QVQLVESGGGLVQAGGSLRLSCGASGFIFGSYAMGWYRQAPGKERELVAAISWSGGGTYYADSVKGRFTISRDNAKNTVYLQMNRLNPEDTAVYYCGALTRYKTASGYDYWGQGTQVTVSS	high polyreactivity
QVQLVESGVGLVQAGGSLLLICAASGRIFGANAMGLYRQAPGKERELVAAISRTGGSTNYADSVKGRFTISRDNAINTVFLQMYSLKPEDTAVYYCNAVYRYAHPMEYWGQGTQVTVSS	high polyreactivity
QVQLVESGGGLVQAGGSLRLSCAASGSIFSVNTMGWYRQAPGKERELVAAISESGDGTYYADSVKGRFTISRDNAKNTVYLQMNSLKPEDTAVYYCNADRQKGGGYYPHEFDYWGQGTQVTVSS	low polyreactivity
QVQLVESGGGLVQAGGSLRLSCAASGSIIRGNAMGWYRQAPGKERELVAAISKRGGSTYYADSVKGRFTISRDNAKNTVYLQMNSLKPEDTAVYYCASDLPAALGFDYWGQGTQVTVSS	high polyreactivity
QVQLVESGGGLVQAGGSLRLSCAASGRIFAAYAMGWYRQAPGKEREFVAAIRLSGGSTYYADSVKGRFTISRDNAKNTVYLQMNSLKPEDTAVYYCAARYPGVARFYYWGQGTQLTVSS	high polyreactivity
QVQLVESGGGLVQAGGSLRLSCAASGRILYGNVMGWYRQAPGKERELVAAIDSSGATTYYADSVKGRITISRDNAKNTVYLQMNSLKPDDTAVYYCAAEVTSFSFGGDATEYYWGQGTQVTVSS	low polyreactivity
QVQLVESGGGLVQAGGSLRLSCAASGRTLGYNAMGWYSQAPGKEMDLVAAISYGGGGTYYADSVKGRCTISRDNAKNTVYLQMNSLKPEDTAVYYCAADYWYGAGLPHGTEFDYWGQGTQVTVSS	low polyreactivity

Sequence	polyreactivity (PSR sort gate)
QVQLVESGGGLVQAGGSLRLSCAASGFTFKQNAMGWYRQAPGKERELVAAITRTGASTYYADSVKGRFTISRDNAKNTVYLQMNSLKPEDTAVYYCNAARRGSAYDYWGQGTQVTVSS	high polyreactivity
QDQLVESGGGLVQAGGSLRLSCAASGIIFDYYAMGWYRQAPGKERELVASISWSGGGTYYADSVKGRFTISRDNAKNTVYLQMNSLKAEDTAVYYCAADGSTVNAPRWSDPYDYWGQGTQVTVSS	low polyreactivity
QVQLVQSGGGLVQAGGSLRLSCAASGSIINKYAMGWYRQAPGKERELVAAISFSGGSTYYADSVKGRFTISRDNAKITVYLQMNSLKPEDTAVYYCAAYHRPYQSYYWGKGTQVTVSS	high polyreactivity
QVQLVESGGGLVQAGGSLRLSCAASGSIFIYNVMGWYRQAPGKERELVATIRGSGGSTYYADSVKGRFTISRDNAQNTVYLQMNSLKPEDTAVYYCARRDYPVQWGRAYNYWGQGTQVTVSS	high polyreactivity
QVQLVESGGGLVQAGGSLRLSCAASGRIFWRNAMGWSRQAPGKERELVAAISSGGSTYYADSVKGRFTISRDNAKNTVYLQMNSLKPEDTAVYYCAARSSWRGVRYDHFERVYWGQGTQVTVSS	high polyreactivity
QVQLVESWGGLVQAGGSLRISCAASGRTFPDYAMGWYRQAPGKERELVAAISSGGGTYYADSVKGRFTISRDNAKNTVFLQMNSLKPEDTAVYYCAATGVPGWVGFDYCGQGTQVTVSS	low polyreactivity
QVQLVESGGGLVQAGGSLRLICAASGRIFGRYTMGWYRQAPGKETELVAGITYSGGSTYYADSVKGRFTISRDNAKNTVYLQMNSLKPEDTAVYYCAARWRGSGGFDYWGQGTQVTVSS	high polyreactivity
QVQLVESGGGLVQAGGSLRLSCAASGFTFNYYAMGWYRQAPGKERELVAAITWRSGRTSYADSVKGRFTISRDNAKNTVYLQMNSLKPEDTAVYYCAKYTIYYGLTRYGYWGQGTQVTVSS	high polyreactivity
QVQLVESGGGLVQAGGSLRLSCAASGSIFGDYVLGWYRQAPGKERELVASISESTDSTYYADSVKGRFTISRDNAKNTVYLQMNSLKPEDTAVYYCATAYPEWAVWGYDYWGQGTQVTVSS	low polyreactivity
QVQLVESGGGLLQAGGSLRLSCAASGSIFQYNAMGWYRQAPGKERELVAAINGGGSTYYADSVKGRFTISRDNAKNTVYLQMNSLKPEDTAVYYCAADGGAYSYRGPGKFGIEDSWGQGTQVTVSS	low polyreactivity
QDQLVESGGGFVQAGGSLRLSCAASGFIYDNEMGWYRQAPGKERELVASITSRGGNTYYADSVKGRFTISRDNAKNTVYLQMNSLKPEETAVYYCAARYYWGSYGPYGYWGQGTQLTVSS	high polyreactivity
QVQLVESGGCLVQAGGSLRLSCAASGRIFAYNAMGWYRQAPGKESELVAAITRGGSTNYADSVKGRFTISRDNAKNTVYLQMNSLKPEDTAVYYCAARRVDTRVHVRYRYYYWGQGTQVTVSS	high polyreactivity
QVQLVESGGGLVQAGGSLRISCAASGGTFTNYAMGWYRQAPGKERELVAAITDSGATTYYADSVKGRFTISRDNAKNTVYLQMNSLKPEDTAVYYCNAELDLYTDFDYWGQGTQVTVSS	low polyreactivity
QVQLVESGGGLVQAGGSLRLSCAASGRIFRWYVMGWYRQAPGKERELVASISSGGITYYADSVKGRFTISRDNAKNTVYLQMNSLKPEDTAVYYCNARRQPYRTSGSEMGYWGQGTQVTVSS	high polyreactivity
QVQLVESGGGLVQAGGSLRLSCAASGRIFDHYARGWYRQAPGKERELVAAINSGGTTNYADSVKGRFTISRDNAKNTVYLQMNSLKPEDTAVYYCAARPRKGQYYFGGNYWGQGTQVTVSS	low polyreactivity
QVQLVESGGGLVQAGGSLRLSCAASGLTFKYYAMGWYRQAPGKERELVAAITSTGGRTYYADSVKGRFTISRDNAKNTVYLQMNSLKPEDTAVYYCAKDTHWAYYWGQGTQVTVSS	low polyreactivity
QVQLVESGGGLVQAGGTLRLSCAPSGRIFKTYAMGWYRQAPGKERELVAAITNNGGSTYYADSVKGRFTISRDNAKNTVYLLMNSLKPEDTAVYYCAVYVKYHYPVVTTGYDYWGQGTQVTVSS	high polyreactivity
QVQLVESGGGLVQAGGSLRLSCAASGSTFVAYAMGWYRQAPGKERELVAAITYSGGRTYYADSVKGRFTISRDNAKNTVYLQMNSLKPEDTAVYSCAATGVFRDEYWGQGTQVTVSS	low polyreactivity
QVQLVESGGGLVQAGGSLRLSCAASGSIFVYNAMGWYRQAPGKEREWVAGITFIGGSTYYADSVKGRFTISRDNEKNTVYLQMNSLKPEDTAFYYCATDLPGGRYYGPYDYWGQGTQVTVSS	low polyreactivity
QVQLVESGGGLVQAGGSLRLSCDASGRILKYYDMGWYRQAPGKERELVAAISVSGTSTYYADSVKGRFTISRDNAKNTVYLQMNSLKPEDTAVYYCATATGRYSFDYWGQGTQVTVSS	low polyreactivity
QVQLVESGGGLVQAGGSLRLSCAASGFTFTYNDMGWYRQAPGKEREFVAAISSTGGSTYYADSVQGRFTISRDNAKNTVYLQMNSLKPEDTAVYYCAAEDSWYWDAWFDYWGQGTQVTVSS	low polyreactivity
